Drawing on the supplement of paper PMC9732359, this text covers protein stability index for 25 sequences.

A short description of this data set: protein stability index of a GFP-peptide fusion (yeast GPS) (PSI 1-4); higher = more stable; sorted into four equal gates, so the index is relative within each strain. The method, boiled down:
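Yeast carrying a pooled library were grown to mid-log phase in leucine-free medium. Each library plasmid expresses Cherry and has a tiled 17-residue yeast protein peptide fused downstream of GFP. Cells were sorted into four equal gates by GFP/Cherry ratio, and plasmids from each gate were PCR-amplified, Illumina-sequenced and assigned to strains by barcode. Summing, across gates, the read frequency times the gate number gave each peptide's protein stability index.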

± gives the uncertainty stated by the source.

Turning to WVIRKQRRTNNSGVGSA [MED6], the protein stability index turned out to be 2.48 ± 0.27 (doa10∆), 2.36 ± 0.14 (pdr5∆), 2.58 ± 0.11 (san1∆) and 2.8 ± 0.14 (ubr1∆).
The sequence WVLHRDLKPANIMVTID [SSN3] yielded a protein stability index (doa10∆) of 1.28 ± 0.18, a protein stability index (pdr5∆) of 1.98 ± 0.14 and a protein stability index (ubr1∆) of 2.48 ± 0.14.
As for WWTNSHHDGKLWNLNAY [PRP8], the protein stability index came to 2.9 ± 0.21 (doa10∆), 2.76 ± 0.14 (pdr5∆), 2.98 ± 0.082 (san1∆) and 2.45 ± 0.14 (ubr1∆).
With YAKSEFDNVASVFMPLI [ECM29], the protein stability index reads like this: (doa10∆) 3.04 ± 0.054; (pdr5∆) 2.8 ± 0.049; (san1∆) 3.08 ± 0.039; (ubr1∆) 3.09 ± 0.046.
YALAAKDRFDIDEKSQF [RPN2] had a protein stability index (doa10∆) of 1.73 ± 0.09, a protein stability index (pdr5∆) of 2.1 ± 0.13, a protein stability index (san1∆) of 1.93 ± 0.17 and a protein stability index (ubr1∆) of 2.66 ± 0.082.
In turn, YAQRIGSGAPVYLTAVL [HTA1] had a protein stability index (doa10∆) of 2.35 ± 0.058, a protein stability index (pdr5∆) of 2.48 ± 0.072, a protein stability index (san1∆) of 2.53 ± 0.097 and a protein stability index (ubr1∆) of 2.35 ± 0.051.
For YASLKLPNQIPGEYITT [YMR129W/POM152], in that order: 1.97 ± 0.049, 2.19 ± 0.059, 2.07 ± 0.057 and 2.09 ± 0.036.
For YDIVKFLTVSKLWAEII [GRR1], in that order: 2.05 ± 0.041, 2.59 ± 0.038, 2.18 ± 0.048 and 2.44 ± 0.032.
For YDKLPAGQNATVAVMSY [RET1], in that order: 1.17 ± 0.046, 1.31 ± 0.046, 1.33 ± 0.13 and 1.18 ± 0.048.
As to YDLVILKSGLPLSGLLF [YMR129W/POM152], the protein stability index worked out at 3.61 ± 0.17 (doa10∆), 2.53 ± 0.13 (pdr5∆), 3.51 ± 0.049 (san1∆) and 2.11 ± 0.18 (ubr1∆).
For YDPQRDKRFSGSLKLPN [RPL1A] the same measures were 3.09 ± 0.065, 3.33 ± 0.068, 3.02 ± 0.052 and 3.08 ± 0.048.
For YDRQLSSLFLDGLEKAA [FAS2], in that order: 2.96 ± 0.084, 2.93 ± 0.074, 2.79 ± 0.095 and 2.95 ± 0.079.
For YEHNGRTLEAITATLVG [CSL4], the protein stability index is 2.03 ± 0.051 (doa10∆), 2.05 ± 0.051 (pdr5∆), 1.83 ± 0.066 (san1∆) and 2.04 ± 0.038 (ubr1∆).
For YEILLKILITYGSSPKL [SRB8] the same measures were 1.27 ± 0.055, 1.6 ± 0.053, 1.35 ± 0.092 and 1.47 ± 0.055.
For the sequence YFAKLREYLEEYKSLFV [RPP0], the protein stability index by setting is: (doa10∆) 2.46 ± 0.19; (pdr5∆) 2.65 ± 0.15; (san1∆) 2.98 ± 0.073; (ubr1∆) 3.24 ± 0.095.
In the case of YFNQLKPYYFSNNHKLS [RPN12], the protein stability index turned out to be 1.17 ± 0.057 (doa10∆), 1.32 ± 0.077 (pdr5∆), 1.19 ± 0.13 (san1∆) and 1.24 ± 0.04 (ubr1∆).
For YFPEGYNNKVGVAASQG [SIR2] the same measures were 1.64 ± 0.055, 2.03 ± 0.063, 2.04 ± 0.16 and 1.81 ± 0.062.
For YFQQTTIDWVEAGLQLC [PRP8], in that order: 3.53 ± 0.11, 3.19 ± 0.099, 3.2 ± 0.064 and 3.04 ± 0.1.
For YGDRMKLAKNLQIGDVV [RPO31] the same measures were 2.94 ± 0.13, 3.49 ± 0.21, 3.34 ± 0.1 and 3.57 ± 0.21.
For YGGSRCANCVKERIIRA [RPL34A], the protein stability index is 1.56 ± 0.061 (doa10∆), 2.81 ± 0.074 (pdr5∆), 2.44 ± 0.082 (san1∆) and 1.57 ± 0.065 (ubr1∆).
For YGLFLKYHKEQFIKSNF [SRB8] the same measures were 2.15 ± 0.067, 2.29 ± 0.045, 1.97 ± 0.069 and 2.36 ± 0.054.
For YGPSFTKRESLNARMFL [SIR2] the same measures were 1.85 ± 0.068, 2.42 ± 0.049, 2.22 ± 0.08 and 1.65 ± 0.036.
The sequence YHNLTTHNSYEKACQVL [RPN6] showed a protein stability index (doa10∆) of 3.33 ± 0.071, a protein stability index (pdr5∆) of 3.11 ± 0.058, a protein stability index (san1∆) of 3.1 ± 0.063 and a protein stability index (ubr1∆) of 2.99 ± 0.037.
For YHSKRDASTPLRSTENG [RPB2] the same measures were 3.12 ± 0.1, 3.32 ± 0.071, 3.12 ± 0.055 and 3.33 ± 0.05.
Consider YIGEFEYIDDHRSGKIV [RPS22A], for which the protein stability index is, setting by setting: (doa10∆) 2.9 ± 0.057; (pdr5∆) 3.13 ± 0.061; (san1∆) 2.99 ± 0.051; (ubr1∆) 3.01 ± 0.043.
